# Data from patent publication US10889844B2, “Methods of degrading or hydrolyzing a polysaccharide” (Novozymes A/S, priority 2010, dated 2021).
# “Also recorded” adds a separate entry of the source.
# Key:
# [1] = test system: N-terminal CBM33 domain of CelS2; experiment: Metal reactivation of EDTA treated N-terminal CBM33 domain of CelS2 (HPAEC, FIG. 31); format: biochemical, Streptomyces coelicolor A3(2); details: for reactivation of EDTA treated enzyme: 10 μM metal ion, 20 μM EDTA, 1.7 mM reduced glutathione, pH 6.6
# Description: […]; Mg^2+, Fe^3+, Zn^2+, Co^2+, Ca^2+, Cu^2+). […].
# To identify which is the preferred metal for CelS2, the activity of the N-terminal CBM33 domain of CelS2 was inhibited by EDTA and different metals were tested to reactivate the protein.
# [2] = Cellulase boosting properties of CelS2 at various pHs with monocomponent Cel7A; format: biochemical; details: Cel7A
# From the text: When probing the cellulose boosting properties of CelS2 at various pHs using monocomponent Cel7A as the cellulose hydrolytic component, pH 5.5 came out as the optimal pH for activity. […] The most obvious reason for the decrease in cellulose hydrolysis at increasing pH is the pH stability and efficiency of Cel7A. […] CelS2 is a bacterial enzyme that originates from Streptomyces species that are known to grow optimally on cellulosic substrates in approximately neutral pH conditions (Kontro et al., 2005, Letters in Applied Microbiology 41: 32-38.).
# [3] = Chitin solubilization by CBP21: soluble oxidized products (MALDI-TOF MS, UHPLC); format: biochemical; details: 2.0 mg/mL beta-chitin, 1.0 mM ascorbic acid, 20 mM Tris pH 8.0, 37° C.
# Description: Two microliter of a 9 mg/mL mixture of 2,5-dihydroxybenzoic acid (DHB) in 30% acetonitrile was applied to a MTP 384 target plate ground steel TF (Bruker Daltonics). One microliter sample was then mixed into the DHB droplet and dried under a stream of air. The samples were analyzed with an Ultraflex MALDI-TOF/TOF instrument (Bruker Daltonics GmbH, Bremen, Germany) with a Nitrogen 337 nm laser beam. The instrument was operated in positive acquisition mode and controlled by the FlexControl 3.3 software package. All spectra were obtained using the reflectron mode with an acceleration voltage of 25 kV, a reflector voltage of 26, and pulsed ion extraction of 40 ns in the positive ion mode. The acquisition range used was from m/z 0 to 7000. […] Post-source decay (PSD) spectra using the Bruker Daltonics LIFT system were recorded at 8 kV precursor ion acceleration voltage and fragment acceleration (LIFT voltage 19 kV). […]
# UHPLC was run on an Agilent 1290 Infinity UHPLC system equipped with diode array detector, set up with a Waters Acquity UPLC BEH amide column (2.1×150 mm with a 2.1×30 mm pre column both having a column material particle size of 1.7 μm) using 5 μL sample injections. […] Eluted oligosaccharides were monitored by recording absorption at 205 nm. Chromatograms were recorded, integrated and analysed using the ChemStation rev. […]
# [4] = CBP21 reaction speed and degree of substrate oxidation (UHPLC of oxidized chitooligosaccharides); format: biochemical
# Description: FIGS. 16A and 16B show the speed and extent of oxidative cleavage by CBP21 activity. […] After five hours, approximately 4.9% of the total sugars (theoretical number based on chitin concentration) are oxidized*. […] The degree of oxidation was determined by rapid conversion of the treated chitin with a large dose of a chitinase cocktail followed by UHPLC detection of oxidized dimers (filled diamonds) and trimers (filled triangles), as described in the Materials and Methods section. The linear part of the reaction represents an oxidation rate of approximately 1 per minute**. Maximum levels are reached after 2-3 hours and represent a degree of oxidation of 7.6% of the total sugars (theoretical number based on chitin concentration)***. Data in both panels are mean+/−SD (N=3); error bars (not visible for every point) indicate SD.
# *The end concentrations of oxidized trimer and tetramer are 53 and 55 μM, respectively, giving rise to a total of 108 μM GlcNAcA. The molar concentration of GlcNAc in the solution is 2217 μM. Thus the degree of oxidation is 108/2217; in other words 4.9% of the sugars are GlcNAcA. **The rates calculated for oxidized dimer and oxidized trimer are 0.68 and 0.60 μM/min. […] The molar concentration of GlcNAc in the solution is 2217 μM. Thus the degree of oxidation is 168/2217; in other words 7.6% of the sugars are GlcNAcA.
# Fractions were dried under vaccum (SpeedyVac), and resuspended in 50 μL MilliQ water. Purity was verified by MALDI-TOF MS. Isolated GlcNAc3GlcNAcA or GlcNAc4GlcNAcA were each incubated for 2 hours at 37° C. with 7.0 μM of a pure recombinant family 19 chitinase (ChiG from Streptomyces coelicolor (Hoell et al., 2006, FEBS J. 273: 4889)) resulting in production of equimolar amounts of GlcNAc2 and GlcNAcGlcNAcA or GlcNAc2GlcNAcA, respectively. The amount of GlcNAc2 resulting from the hydrolysis was estimated using a predetermined standard curve. Response factors for the GlcNAcA containing oligosaccharides were obtained by determining GlcNAcGlcNAcA/GlcNAc2 and GlcNAc2GlcNAcA/GlcNAc2 peak area ratios and found to be 0.71 and 0.81, respectively. A response factor for GlcNAc3GlcNAcA was approximated to be 0.88 by extrapolation of the two experimentally determined response factors. Using the response factors determined, GlcNAcGlcNAcA and GlcNAc2GlcNAcA peaks could be quantified using GlcNAc2 for calibration. […] Additionally, the reactions contained 0.45 mg/mL beta-chitin, 1.0 μM CBP21 and 0.5 ChiC μM in 20 mM Tris-HCl pH 8.0.
# The reactions were incubated at 37° C. in an Eppendorf Thermo mixer with shaking at 1000 rpm, and sampled at 30, 60, 120 and 300 minutes. All samples were mixed 1:1 with 100% acetonitrile in order to stop the reaction and soluble products were analyzed by UHPLC. Separation of the oxidized oligosaccharides and GlcNAc2 was achieved using a column temperature of 30° C. and a flow of 0.4 mL/min, with a gradient starting at 80% ACN (A):20% 15 mM Tris-HCl pH 8.0 (B) for 4.5 minutes, followed by an 11 minute gradient to 63% A: 37% B which was held for 3.5 minutes. Column reconditioning was achieved by a two minute gradient to initial conditions and subsequent running at initial conditions for 5 minutes. Eluted oligosaccharides were monitored by recording absorption at 205 nm. Chromatograms were recorded, integrated and analysed using the ChemStation rev. B.04.02 chromatography software (Agilent Technologies).
# In order to approximate the rate of the CBP21 oxidohydrolytic activity, reactions containing 0.45 mg/mL beta-chitin, 1.0 μM CBP21 and 1.0 mM reduced glutathione in 20 mM Tris-HCl pH 8.0 were incubated at 37° C. and sampled at 10, 15, 30,45, 60 and 300 minutes. […]
# [5] = 0.1 mg/mL beta-chitin, 0.5 μM ChiC, 1.0 mM ascorbic acid, pH 8.0
# Description: CBP21-like and GH61 proteins contain two highly conserved histidines (H28 and H114 in CBP21), one of which is the N-terminal histidine of the secreted mature protein.
# Isocratic HPLC was run on a Dionex Ultimate 3000 HPLC system set up with a 4.6×250 mm Amide-80 column (Tosoh Bioscience, Montgomeryville, Pa., USA) with an Amide-80 guard column. The mobile phase consisted of 70% acetonitrile: 30% MilliQ H2O and the flow rate was 0.7 ml/min. Eluted oligosaccharides were monitored by recording absorption at 190 nm. Chromatograms were recorded, integrated and analysed using the Chromeleon 6.8 chromatography software (Dionex). […] A standard solution containing 0.10 mM (GlcNAc)2 was analyzed at regular intervals during the sample series, and the resulting average values (displaying standard deviations of less than 3%) were used for calibration.
# For the sake of experimental simplicity and throughput, the degradation of chitin in reactions with ChiC and CBP21 was quantitatively assessed by measuring concentration of the dominant product, (GlcNAc)2, only.
# The reaction was incubated at 37° C. and sampled at regular time intervals. Chitin degradation was measured by determining the concentration of (GlcNAc)2 by HPLC.
# [6] = Time course of filter paper cellulose degradation by […] with CelS2 (FIG. 25); format: biochemical; details: 10 mg/ml filter paper, 0.8 μg/ml CC, pH 5.5
# Description: In reactions where no CelS2 was present, 40 μg/ml purified BSA was added in order to maintain an identical protein load. […] Data are mean+/−SD (N=3); error bars indicate SD.
# [7] = Filter paper degradation by […] with CelS2 or E7 (FIG. 20), sugars by HPLC; format: biochemical
# Description: Reactions were run in 50 mM Bis-tris/HCl pH 6.5, 1 mM MgCl2, at 50° C. and 900 rpm (horizontal agitation). Control reactions containing the cellulosic substrate suspended in the same buffer as used for the enzyme assays gave no detectable signal for either glucose or cellobiose.
# The mobile phase consisted of 5 mM sulfuric acid and the flow rate used was 1.0 ml/min. Eluted glucose and cellobiose were monitored by recording refractive index. Quantification was obtained by running glucose and cellobiose standards.
# Assays performed to evaluate the function of E7 and CelS2 were set up using a variety of cellulosic substrates (AVICEL®, filter paper and steam exploded wood chips from poplar), at either pH 5.5 (20 mM sodium acetate buffer), 6.5 (20 mM Bis-Tris buffer) or 8.0 (20 mM Tris buffer) in reaction mixtures containing 1.0 mM MgCl2.
# [8] = Filter paper cellulose degradation by […] with E7 (FIG. 28); format: biochemical
# Description: 1 μM of the N-terminal CBM33 domain of CelS2 was incubated with 10 mg/ml AVICEL® in the presence of 0.8 mM of one of the reductants, or in the absence of any reductant. Reactions were run in 50 mM succinate buffer pH 5.5, 1 mM MgCl2, at 50° C. and 900 rpm (vertical agitation) for 20 hours. […] (glucose and cellobiose reported as [Glc]) released after incubation of 0.08 μl/ml […]™ (CC) in the presence or absence of 1 μM E7 and 2 mM reduced glutathione (RG) as external electron donor with 2 mg/ml filter paper cellulose. Reactions were incubated in 20 mM sodium acetate buffer pH 5.5, 1 mM MgCl2, at 50° C. and 900 rpm (horizontal agitation) for up to 50 hours.
# [9] = Soluble products released from AVICEL by CBM33 proteins (MALDI-TOF MS, HPAEC); format: biochemical; details: with external electron donor (ascorbic acid or reduced glutathione)
# Description: The main peaks are annotated with molecular weight and degree of polymerization (DP).
# The DP of the oxidized cellooligosaccharides is indicated by n, where n=3 (the shortest labelled oxidized cellooligosaccharide has a DP of three (=n)). […] Peak annotation was performed by comparing the chromatogram with the chromatogram obtained for a chemically prepared mixture of oxidized cellooligosaccharides with lengths varying from DP1 to DP10.
# The main peaks are annotated with molecular weight and degree of polymerization (DP). All annotated peaks are Na adducts of native cellooligosaccharides, oxidized cellooligosaccharides (denoted “ox”) or the sodium salts of oxidized cellooligosaccharides.
# Products were analyzed after 20 hours of incubation in 20 mM ammonium acetate buffer pH 5.0, 1 mM MgCl2 at 50° C. and 900 rpm (vertical agitation).
# Separation of native and oxidized cellooligosaccharides was achieved using a Dionex Bio-LC equipped with a CarboPack PA1, a column temperature of 30° C. and a flow of 0.25 ml/min, with starting conditions, i.e., 0.1 M NaOH. A stepwise linear gradient with increasing amounts of sodium acetate was applied, going from 0.1 M NaOH and 0.1 M sodium acetate in 10 minutes, then to 0.1 M NaOH and 0.3 M sodium acetate for 25 minutes then increasing to 0.1 M NaOH and 1.0 M sodium acetate at 30 minutes which was kept for 10 minutes. Column reconditioning was achieved by a one minute gradient to initial conditions and subsequent running at initial conditions for 14 minutes. Eluted oligosaccharides were monitored by PAD detection. Chromatograms were recorded and analysed using Chromeleon 7.0 Peak identification was achieved by a procedure including the following steps: oxidized cellooligosaccharides were separated using a Dionex Ultimate 3000 UHPLC system carrying a Hypercarb 150×2.1 mm column (Thermo Scientific) running a gradient of water/0.1% TFA and acetonitrile/0.1% TFA (from 20 to 80% acetonitrile) according to the method developed by Westphal et al., 2010, Journal of Chromatography A 1217: 689-695. Eluted peaks were manually fractioned, freeze-dried, re-dissolved in MilliQ water and identified using MALDI-TOF MS. Pure oxidized cellooligosaccharides with known identity were then analyzed using the HPEAC method described above in order to establish the identity of the oxidized cellooligosaccharides generated by CelS2 and E7.
# [10] = 1.0 μM CBP21 alone, 0.45 mg/mL beta-chitin
molecule,measurement,setting,value
[Cu+2] [Cu^2+],reactivation of EDTA treated enzyme,[1],reactivated the enzyme
same,reactivation of EDTA treated enzyme,[1]; listed as copper,able to reactivate CelS2
same,effect on CBM33 action at higher metal concentration,"[1]; concentrations in the 1 mM range, not shown",inhibits CBM33 action
"Cel7A: family GH7 cellulase from Hypocrea jecorina purified from CELLUCLAST (protein, UniProt P62694 18-513, looked up) Exoglucanase 1: QSACTLQSETHPPLTWQKCSSGGTCTQQTGSVVIDANWRWTHATNSSTNCYDGNTWSSTLCPDNETCAKNCCLDGAAYASTYGVTTSGNSLSIGFVTQSAQKNVGARLYLMASDTTYQEFTLLGNEFSFDVDVSQLPCGLNGALYFVSMDADGGVSKYPTNTAGAKYGTGYCDSQCPRDLKFINGQANVEGWEPSSNNANTGIGGHGSCCSEMDIWEANSISEALTPHPCTTVGQEICEGDGCGGTYSDNRYGGTCDPDGCDWNPYRLGNTSFYGPGSSFTLDTTKKLTVVTQFETSGAINRYYVQNGVTFQQPNAELGSYSGNELNDDYCTAEEAEFGGSSFSDKGGLTQFKKATSGGMVLVMSLWDDYYANMLWLDSTYPTNETSSTPGAVRGSCSTSSGVPAQVESQSPNAKVTFSNIKFGPIGSTGNPSGGNPPGGNRGTTTTRRPATTTGSSPGPTQSHYGQCGGIGYSGPTVCASGTTCQVLNPYYSQCL",cellulase activity at pH 8.0,[2],close to inactive
"CBP21: chitin-binding protein of Serratia marcescens, single-domain CBM33 protein (SEQ ID NO: 4) (protein, listed as Serratia marescens) MNKTSRTLLSLGLLSAAMFGVSQQANAHGYVESPASRAYQCKLQLNTQCGSVQYEPQSVEGLKGFPQAGPADGHIASADKSTFFELDQQTPTRWNKLNLKTGPNSFTWKLTARHSTTSWRYFITKPNWDASQPLTRASFDLTPFCQFNDGGAIPAAQVTHQCNIPADRSGSHVILAVWDIADTANAFYQAIDVNLSK",production of soluble oxidized oligosaccharides from beta-chitin,[3],soluble products are dominated by even numbered short oligosaccharides with acidic reducing ends
same,rate calculated for oxidized dimer,[4]; [10],0.68 µM/min
same,rate calculated for oxidized trimer,[4]; [10],0.60 µM/min
same,rate of oxidized products generated (dimer + trimer),[4]; [10],1.28 µM/min
same,end concentration of oxidized tetramer,"[4]; CBP21 + ChiC, five hours",55 µM
same,end concentration of oxidized trimer,"[4]; CBP21 + ChiC, five hours",53 µM
same,total GlcNAcA,"[4]; CBP21 + ChiC, five hours",108 µM
same,oxidized dimer produced at maximum levels,[4]; CBP21 alone,93 µM
same,oxidized trimer produced at maximum levels,[4]; CBP21 alone,75 µM
same,time at which maximum levels of oxidized sugars are reached,[4]; CBP21 alone,2 to 3 h
same,total GlcNAcA at maximum levels,[4]; CBP21 alone,168 µM
same,potentiating effect on chitinase (ChiC) efficiency,[5],promotes chitin degradation by ChiC considerably better in the presence of ascorbic acid
same,effect on CELLUCLAST (CC) production of soluble glucose over time,[6],did not affect CC efficiency
"CBP21^H114A: H114A mutant variant of CBP21 (protein, UniProt P9WEM3 28-197, looked up, variant H114A) AA10 family lytic …: HGYVESPASRAYQCKLQLNTQCGSVQYEPQSVEGLKGFPQAGPADGHIASADKSTFFELDQQTPTRWNKLNLKTGPNSFTWKLTARASTTSWRYFITKPNWDASQPLTRASFDLTPFCQFNDGGAIPAAQVTHQCNIPADRSGSHVILAVWDIADTANAFYQAIDVNLSK",production of soluble oxidized oligosaccharides from beta-chitin,[3],did not lead to production of soluble oxidized oligosaccharides
same,potentiating effect on chitinase (ChiC) efficiency,[5],unable to boost chitinase activity
"E7: single domain CBM33 from Thermobifida fusca (SEQ ID NO: 6) (protein, listed as Thermobifida fusca) MHRYSRTGKHRWTVRALAVLFTALLGLTQWTAPASAHGSVINPATRNYGCWLRWGHDHLNPNMQYEDPMCWQAWQDNPNAMWNWNGLYRDWVGGNHRAALPDGQLCSGGLTEGGRYRSMDAVGPWKTTDVNNTFTIHLYDQASHGADYFLVYVTKQGFDPTTQPLTWDSLELVHQTGSYPPAQNIQFTVHAPNRSGRHVVFTIWKASHMDQTYYLCSDVNFV",increase of glucose yield versus CELLUCLAST only,"[7]; no external electron donor, 24 hours",~3.0 fold
same,increase of glucose yield versus CELLUCLAST only,"[7]; no external electron donor, 120 hours",~3.5 fold
same,increase of glucose yield versus CELLUCLAST only,"[7]; with external electron donor (1 mM reduced glutathione), 24 hours",3.5 fold
same,increase of glucose yield versus CELLUCLAST only,"[7]; with external electron donor (1 mM reduced glutathione), 120 hours",~4.5 fold
same,effect on CELLUCLAST activity,"[8]; 1 μM E7, 0.08 μl/ml CC, 2 mg/ml filter paper, pH 5.5",acts in synergy with CELLUCLAST™; also recorded: prolongs cellulase activity over time
same,Glc or Glc2 released without cellulases,[8]; E7 in absence of cellulases,did not yield detectable amounts of Glc or Glc2
same,release of soluble native/oxidized cellooligosaccharides from AVICEL,[9],soluble oligomeric products were observed
"CBM33 domain: recombinantly produced N-terminal CBM33 domain of CelS2 (SEQ ID NO: 22) (protein, Streptomyces coelicolor) HGVAMMPGSRTYLCQLDAKTGTGALDPTNPACQAALDQSGATALYNWFAVLDSNAGGRGAGYVPDGTLCSAGDRSPYDFSAYNAARSDWPRTHLTSGATIPVEYSNWAAHPGDFRVYLTKPGWSPTSELGWDDLELIQTVTNPPQQGSPGTDGGHYYWDLALPSGRSGDALIFMQWVRSDSQENFFSCSDVVFDGG",release of soluble native/oxidized cellooligosaccharides from AVICEL,[9],"shows activity on AVICEL® without its CBM2, although lower than the activity of the whole protein"
